Measured values: patent US9486491 (dated 2016)
Non-standard residues stand in square brackets, D forms with d. No end group written: not given here. Hyp = O=C(O)[C@@H]1C[C@@H](O)CN1

Target: DPP-4 (UniProt P27487)
Experiment: other, DPP-4 inhibition

Chain of DPP-4 (P27487 29-766): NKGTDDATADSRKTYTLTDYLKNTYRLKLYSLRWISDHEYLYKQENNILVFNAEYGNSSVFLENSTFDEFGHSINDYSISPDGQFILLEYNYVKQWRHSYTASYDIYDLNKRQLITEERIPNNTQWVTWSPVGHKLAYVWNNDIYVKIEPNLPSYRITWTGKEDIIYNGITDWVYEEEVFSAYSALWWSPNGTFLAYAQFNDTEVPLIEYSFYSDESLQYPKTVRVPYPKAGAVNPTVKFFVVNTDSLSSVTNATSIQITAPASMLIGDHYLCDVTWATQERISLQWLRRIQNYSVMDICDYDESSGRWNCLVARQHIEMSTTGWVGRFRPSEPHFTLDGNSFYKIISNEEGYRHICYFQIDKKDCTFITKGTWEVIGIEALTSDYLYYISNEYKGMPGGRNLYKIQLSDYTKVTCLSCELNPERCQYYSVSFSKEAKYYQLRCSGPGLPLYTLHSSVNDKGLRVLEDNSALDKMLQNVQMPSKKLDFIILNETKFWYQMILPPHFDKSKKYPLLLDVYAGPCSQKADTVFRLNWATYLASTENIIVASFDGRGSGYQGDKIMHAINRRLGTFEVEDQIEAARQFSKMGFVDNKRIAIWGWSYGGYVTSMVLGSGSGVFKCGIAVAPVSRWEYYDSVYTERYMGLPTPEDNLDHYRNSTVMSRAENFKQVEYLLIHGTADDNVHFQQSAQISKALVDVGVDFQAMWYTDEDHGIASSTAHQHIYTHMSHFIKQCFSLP

Row | Binder | IC50
1 | GPS [GlyProSer] | 142 µg/mL
2 | GPQ [GlyProGln] | 93 µg/mL
3 | GPIGPV [GlyProIleGlyProVal] | 5 µg/mL
4 | Leu-[Hyp]-Gly [LeuHypGly] | 39 µg/mL
5 | L[Hyp]GPA [LeuHypGlyProAla] | 390 µg/mL
6 | Ile-[Hyp]-Gly [IleHypGly] | 150 µg/mL
7 | APG [AlaProGly] | 8 µg/mL
8 | LPG [LeuProGly] | 14 µg/mL
9 | Ala-[Hyp]-Gly [AlaHypGly] | 2450 µg/mL
10 | GPA [GlyProAla] | 71 µg/mL
11 | GPV [GlyProVal] | 100 µg/mL
